Results published in the supplement of paper PMC12764529.
± gives the half width of the 95% confidence interval.

Experiments:
[1] = folding stability dG unfold (combined trypsin and chymotrypsin); higher = more stable
Procedure, shortened: (§1)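 Designed mini-proteins (under 80 residues, no cysteine) in a PA-tagged cDNA display construct were digested with trypsin and chymotrypsin. Each protease was used at 11 concentrations (threefold dilutions) plus a no-protease condition, followed by sequencing. K50 was inferred by Bayesian fitting of sequencing counts, and unfolding free energy was derived against a sequence-predicted unfolded-state K50 and a shared folded-state K50, per protease or combined. Only designs with AlphaFold2 dimer inter-PAE above 15 were kept.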

[2] = folding stability dG unfold from chymotrypsin proteolysis; higher = more stable
Procedure, shortened: as §1

[3] = folding stability dG unfold from trypsin proteolysis; higher = more stable
Procedure, shortened: as §1

Sequence: SAGARIVPIKINLKWNPDNGQLEVPIEMYVNNHPVEMEARFDPEDPGKIEFEITYPGNGQEIRASIPLPSAG [r14_178_TrROS]
- folding stability dG unfold [1]: 0.467 ± 0.26 kcal/mol
- folding stability dG unfold [2]: -0.0473 ± 0.31 kcal/mol
- folding stability dG unfold [3]: 0.951 ± 0.098 kcal/mol

Sequence: SAGATATPPAVRVATARLPLPFGTGTEVTVTTYSDGSATVTARFPDGVVATAFVSPDGSAVVTVAPAGGSAG [r5_168_TrMRF]
- folding stability dG unfold [1]: 2.41 ± 0.061 kcal/mol
- folding stability dG unfold [2]: 2.955 ± 0.024 kcal/mol
- folding stability dG unfold [3]: 0.992 ± 0.064 kcal/mol

Sequence: SAGATPTTLSFTDPEGKKIANVTVTVLPGGRQEASITNSDSNESYTAEYDPATGTWTLTFPDGTTLTVGSAG [r5_809_JUSTAS]
- folding stability dG unfold [1]: 1.58 ± 0.059 kcal/mol
- folding stability dG unfold [2]: 1.75 ± 0.032 kcal/mol
- folding stability dG unfold [3]: 1.15 ± 0.039 kcal/mol

Sequence: SAGATTTTTTTNPADDTTVTTTTTTTGNTSTVTSTSTSGSTSTLTTTTVTFTSPTTTTTTTTTTPVPSSAGG [r19_292_JUSTAS]
- folding stability dG unfold [1]: 0.264 ± 0.074 kcal/mol
- folding stability dG unfold [2]: -0.45 ± 0.22 kcal/mol
- folding stability dG unfold [3]: 0.679 ± 0.03 kcal/mol

Sequence: SAGAVELPPGVAAVERDPETGVVTATYPDGTVTRYTVSTEWDPTVGRTRPRVTVEVWSPDSRISTRDLPSAG [r5_109_JUSTAS]
- folding stability dG unfold [1]: 0.527 ± 0.12 kcal/mol
- folding stability dG unfold [2]: 0.799 ± 0.13 kcal/mol
- folding stability dG unfold [3]: 0.119 ± 0.31 kcal/mol

Sequence: SAGAVRPDEPVTVTVTVEVDPETGFVRVTFDAAAPDGITVEALIPPDGPVLVRVRRPGSRETVEVVLPASAG [r5_55_TrMRF]
- folding stability dG unfold [1]: 3.06 ± 0.072 kcal/mol
- folding stability dG unfold [2]: 3.31 ± 0.045 kcal/mol
- folding stability dG unfold [3]: 2.57 ± 0.13 kcal/mol

Sequence: SAGDAEEIAKKIEEAAREEFAARLGYPDLEILKVEVLEVDPVTGRVRVRVTVRLPDGRLLEAEFEVPVASAG [r5_20_TrMRF]
- folding stability dG unfold [1]: 3.65 ± 0.065 kcal/mol
- folding stability dG unfold [2]: 3.41 ± 0.06 kcal/mol
- folding stability dG unfold [3]: 3.83 ± 0.06 kcal/mol

Sequence: SAGDAVRIPIRFPNGMQIYSIEINPDENTIKIKIYDPNGYRKFEWTFPVKDPNGDPKLVGKIKFYMRPPSAG [r5_434_TrROS]
- folding stability dG unfold [1]: 2.31 ± 0.23 kcal/mol
- folding stability dG unfold [2]: 2.61 ± 0.16 kcal/mol
- folding stability dG unfold [3]: 2.01 ± 0.069 kcal/mol

Sequence: SAGDFLKNLPPGIKRWRPVASDPDGHFVFVFKYKTPDRPRYMVIQFPPNGRIQDIHIFPPDEADKAVNKSAG [r5_73_TrROS]
- folding stability dG unfold [1]: 1.52 ± 0.25 kcal/mol
- folding stability dG unfold [2]: 2.04 ± 0.23 kcal/mol
- folding stability dG unfold [3]: 0.72 ± 0.073 kcal/mol

Sequence: SAGDGDKMRGEHEREDPNGKKREVTHEMKVQPPPVPKPKIELPADDIDEIDPDNGTLRNPGNGKPFPIGSAG [r5_807_TrROS]
- folding stability dG unfold [1]: -0.31 ± 0.41 kcal/mol
- folding stability dG unfold [2]: -0.465 ± 0.17 kcal/mol
- folding stability dG unfold [3]: 0.0244 ± 0.15 kcal/mol

Sequence: SAGDNYREVEYTLKLKNPKGERKLKVKVYYPKGGMFIKIEWPDNGRKIDIPFKSPEDAEETIKDLLDKLSAG [r5_480_TrROS]
- folding stability dG unfold [1]: 2.13 ± 0.22 kcal/mol
- folding stability dG unfold [2]: 2.25 ± 0.13 kcal/mol
- folding stability dG unfold [3]: 1.71 ± 0.059 kcal/mol

Sequence: SAGDQTITIKIPNAPPGSRVQIMLFDPGKIKGFHEIDPDDPKEVEIKIELPPYTIMIYVADGNVFPIPISAG [r5_646_TrROS]
- folding stability dG unfold [1]: 2.46 ± 0.21 kcal/mol
- folding stability dG unfold [2]: 2.82 ± 0.059 kcal/mol
- folding stability dG unfold [3]: 1.94 ± 0.12 kcal/mol

Sequence: SAGDRIRITMPFDDLRKIMDEIGYPPEQMTAEEFADRLAEHFPGVKVDIEMDREDGYFTVEIELPPGMKSAG [r5_264_TrROS]
- folding stability dG unfold [1]: 1.42 ± 0.18 kcal/mol
- folding stability dG unfold [2]: 1.43 ± 0.041 kcal/mol
- folding stability dG unfold [3]: 1.43 ± 0.062 kcal/mol

Sequence: SAGDSIEIMVMVKTPEEAKKLADEIAQILPGNGLNIEITIMPMEELMKMFMEMTKPDPDGEYRRVRMFSAGG [r19_187_TrROS]
- folding stability dG unfold [1]: 1.3 ± 0.14 kcal/mol
- folding stability dG unfold [2]: 1.37 ± 0.13 kcal/mol
- folding stability dG unfold [3]: 1.07 ± 0.053 kcal/mol

Sequence: SAGDSVVIPFRLPPENLSPEELLEWIIDEVKEAAKAGLPHKVTIQVPYPGKPWYITIDPKNGEIEIVPSAGG [r19_204_TrROS]
- folding stability dG unfold [1]: 1.52 ± 0.15 kcal/mol
- folding stability dG unfold [2]: 1.66 ± 0.085 kcal/mol
- folding stability dG unfold [3]: 1.04 ± 0.088 kcal/mol

Sequence: SAGDTISIMIPPGMSGERAVNQIKYIAREQKENGKKRKITIWMPDPMRARFIKKALDEKGIPIEIEFWSAGG [r19_268_TrROS]
- folding stability dG unfold [1]: 1 ± 0.1 kcal/mol
- folding stability dG unfold [2]: 0.766 ± 0.11 kcal/mol
- folding stability dG unfold [3]: 1.24 ± 0.049 kcal/mol

Sequence: SAGDVKVITIKNPDGWQASIALNEDGTVYLMFNSPDQFLDLIEDLGFPITSVEMHPNGMMIFTIELPPSAGG [r19_257_TrROS]
- folding stability dG unfold [1]: 3.41 ± 0.18 kcal/mol
- folding stability dG unfold [2]: 4.26 ± 0.17 kcal/mol
- folding stability dG unfold [3]: 2.27 ± 0.061 kcal/mol

Sequence: SAGEEKEAKALAEQYAAEFAPKLGMKYEVPEVKVEKDEKTGKITVTVTVKFTFPEPRTVTKKFTIVVPKSAG [r5_381_JUSTAS]
- folding stability dG unfold [1]: 2.14 ± 0.27 kcal/mol
- folding stability dG unfold [2]: 1.61 ± 0.11 kcal/mol
- folding stability dG unfold [3]: 2.4 ± 0.14 kcal/mol

Sequence: SAGEERTVRVEIEIVVKTEEELEALKALFPNAEATRNEDGLLTLRLTIEVRVAPPVVVRDPETNELLELSAG [r5_129_TrROS_Hall]
- folding stability dG unfold [1]: 2.46 ± 0.11 kcal/mol
- folding stability dG unfold [2]: 2.42 ± 0.049 kcal/mol
- folding stability dG unfold [3]: 2.56 ± 0.088 kcal/mol

Sequence: SAGEFEVLEVREVDGRLVVRLALPDKPEVVTIVLERHPDGSVRALIEAEGEAADRIVEALPELDEVVVASAG [r5_933_TrMRF]
- folding stability dG unfold [1]: 2.46 ± 0.15 kcal/mol
- folding stability dG unfold [2]: 2.64 ± 0.11 kcal/mol
- folding stability dG unfold [3]: 1.9 ± 0.036 kcal/mol

Sequence: SAGEIAEYIAEYLAQEPGFQDVEVNIKITDIEPPPNGYMYHKIDIHVRVRNPDDGKPREVNFDITFPMPSAG [r5_176_TrROS]
- folding stability dG unfold [1]: 1.7 ± 0.17 kcal/mol
- folding stability dG unfold [2]: 1.83 ± 0.068 kcal/mol
- folding stability dG unfold [3]: 1.1 ± 0.084 kcal/mol

Sequence: SAGEIKIEIKKNKNGKLTIRITVKKKDGEEKEIEIEVPENMTAEELAKELEKKGFEITEIKSIEELLKSAGG [r19_263_TrROS_Hall]
- folding stability dG unfold [1]: 3.98 ± 0.6 kcal/mol
- folding stability dG unfold [2]: 3.83 ± 0.25 kcal/mol
- folding stability dG unfold [3]: 3.89 ± 0.34 kcal/mol

Sequence: SAGEKEVIEIEVRVTVVRRLPEDLSEEQRKALEDELEVEEVTVRVRFDLDTGRIYVEFEDGSRLEFELPSAG [r5_701_TrROS_Hall]
- folding stability dG unfold [1]: 3.16 ± 0.1 kcal/mol
- folding stability dG unfold [2]: 3.37 ± 0.066 kcal/mol
- folding stability dG unfold [3]: 2.67 ± 0.054 kcal/mol

Sequence: SAGEKKIKIEIKEIKPHENGYLSIKAKAYLEDGKKVAEVYEPYPPNLSLEELIEKVIERLEKEVKEKGESAG [r5_697_TrMRF]
- folding stability dG unfold [1]: 0.22 ± 0.21 kcal/mol
- folding stability dG unfold [2]: -0.207 ± 0.18 kcal/mol
- folding stability dG unfold [3]: 0.445 ± 0.039 kcal/mol

Sequence: SAGEKKLTEEEIKKLVEELLKKLKPGEKEKVTLEIELTLEDGRKVKIRITVEVKDGKLVVKIEVEELPSAGG [r19_220_TrROS_Hall]
- folding stability dG unfold [1]: 3.68 ± 0.46 kcal/mol
- folding stability dG unfold [2]: 3.64 ± 0.52 kcal/mol
- folding stability dG unfold [3]: 3.65 ± 0.27 kcal/mol

Sequence: SAGELKITIAVFRPVEKDENGKEVKVELVEVKTITISKEDLTEEEILKLAEELKKKFPNTVILVTIEPSAGG [r19_369_TrROS_Hall]
- folding stability dG unfold [1]: 2.91 ± 0.19 kcal/mol
- folding stability dG unfold [2]: 2.93 ± 0.19 kcal/mol
- folding stability dG unfold [3]: 2.59 ± 0.23 kcal/mol
